This is an account of results in a protein production outcome set (Wang et al. 2014).

The series can be described thus: label from the status in PepcDB records.
As to “MRVARLFRFPVKGFPAEEIPEADVRTGRGIRGDRVAAFTNGSLDIPDDSWHRYSAFTVLKNDTDLQKWQVELDLAEAADSSQPAVADPSATVTLTSPQNETTTFRTDDRDTRATSADFLSARIPPQGDFPRALSVADQGMFDSQAAGVSIINPATVAAISQTADGQAALAPGETELDPLRFRGNVLVDGLAPFEEFALIGKIVRLGGVRLAITQAIERCPATTVNPTTTAVDVNVPRVLASACGHLHCGVYGRILESGLVSTGDEIEIEGDAPRELVKTARTPRFMTVLGSQQICNDIVEVSLRDDQGWIREFDEPGTNLRVHLDLGEPFWRTYTITDVSDDIVSIAVRTQGKGSRAVAELAAGQSVLASGPHGTMTANRVFGGTTALVTAGIGITPSLGLMRGAELSGTEKIKLFHVDRDHRTACLWDRLQKRAHSRQIPVETHHRDTASQGRPGHADLVDWLAGCDNVMVCGPADFTRAVLDASAEAGVPAVHQEIFASPNTGMSEAIAQCSPAEVTLENSGTSFLWEPQQGTLLEALEARGLRADNSCRGGSCGTCAVSLAAGSVIYPVEPAARIAADEVLVCSAVPSGPISLGILEHHHHHH”, the protein production entry is reported as “failed”.
For the sequence “MNMDISKAAIVTGGSRGIGRAIAARLAADGFAVVVNYAGNGAKAHETVAAIESAGGKAIAIQGDVGKPQDVANLFAQARAAFGRIDVVVNSAGVMPMASIDVANLDAFDQVIATNLRGAFLVLAQAAANLGDDGRIIALSTSVIAKSLPGYGPYIASKAGVEGLVHVLANELRGRNITVNAIAPGPVGTDLFFNGKSEEAVASIARQAPMERIGMPDEIAAAVSFLAGPDGRWVNAQVLRVNGGFA”, the protein production entry is listed as “failed”.
Consider “MALIEGFRVRNYRALRDITLGRLSAEQQGDPLTPFTVVIGKNGVGKSTLFDAFGFVADCLSKDVESACDDKQRGGFERMRSLGTEESIRFDIYYREAKGERPITYELAINLDSSGRPFVESEVLKQRRKGQKHGRPYPFLRLHHGVGKVWAGEEAVETSSGEEDRAQEDVELTDLRQLGIATLGTLKEHPRIKRFRDFLKGWHLSYFHPDSARSIPSAGAQRHLDVHGENIGNVVQYMEREHKERFKTILDRIAAKIPGVHSIRTTVTQDKRVLLQFNDGAFNDPFYAGQMSDGTLKIFAYLLLMEDPEPPPFICIEEPENGLYHRLLDSLASELRSHATGKKNAPQIFVTTHQPYFVDALSTKEVWILEKGKNGFSTICRASDIDLVRNLVEEGLPLGGLWYGDYLDTK”, for which the protein production result is “failed”.
Take “MTQQDFRTKVDNTVFGVRATALIVQNHKLLVTKDKGKYYTIGGAIQVNESTEDAVVREVKEELGVKAQAGQLAFVVENRFEVDGVSYHNIEFHYLVDLLEDAPLTMQEDEKRQPCEWIDLDKLQNIQLVPVFLKTALPDWEGQLRHIHLEE”: the protein production entry is recorded as “not failed”.
As to “MNRAREINYLNSIALHQPFGIVGVSGETGIGKTTVLNFVNPEGVFTVRVNISLRDSMESILYDLLHSLALSLEKVEEVSDLAKEVRKWITDEVSTIKGFSLGVSFGVNASLTHEKSIRPRFNFFKAREKLGELIKQTVQRKGKFLLIIDELDKEKKEDVLRVIDSIKNFIIMEDFVVILSLPFSIYREYAADRLRWNEAGNLENIFTDIVFVEPLKKLEIKELIIKRLGSYIELIEDGVLDIVADFSDGNPRDGLWILTKAIYDNIHKELLSKEDLINTINRTISEYTGLTLNLTENQKKAIRVLRGSVYSREKIIETLQKEGFKRTTAYSVMDQLLQKRILLVEKEGYRISGKFSYMEI”, the protein production result is on record as “failed”.
For “MKIIVVGGGKVGKALCRSLVEEEHDVILIEENESVLNHVTKRLDIMGIVGNGANFRILEQADVQHCDIFIAITDKDEVNMVAAVLAKRMGAKETIVRVRNPEYSNTYFKDKNFLGFSLVVNPELLTARYIANMVDFPNARSVEHFVNGRVMLMEFKIVDGNNLCQMSLNQFRKRFNNIVICAIERGNELIIPDGDAVIQSGDKIFVTGKRMEMIHFHNFVKNKVIKHLMIIGAGRISYYLLNILKTTNRHLQVKVIELNPKKAELFSQEFPHIHVVQGDGTAKDILLEESAANYDAIATLTGVDEENIIASMFLETLGVQKNITKVNRTSILEIINPEQFSSIITPKSIAVDSMMHFIRGRVNAQDSNLDAMHHVANGRIETLQFEIRQTNKMAGKTLSELHFKTNVLIAAIIRNGKTIFPTGDDILEVGDKIVVITLLTNITHIYDLLKR”, the protein production entry was “failed”.
Turning to “MKNRTKSRWKKIVLGIGLFLAVLVIGLTIFIKNSTYQATDSALKISQSATQEKNYDYYTNGQKNDTALIFYPGALVAPASYSEWAQEVATKGYDVYVVHFPLNLAVLAPNAAEQIIKDHPQQNFVLAGHSLGGVMASRFVAENEQRIKGMIYLASYPDEKGALNKKNLPVLSITATNDGVLNWTSYQKAKQFLPKDTQYVSIEGGNHAGFGNYGVQKGDSKATISNEQQQTEISQLIVAWLQSRPNK”, the protein production entry was “failed”.
